According to patent publication US20240376163:

T1: GST-tagged CABIN1-L-1-2
T1 chain: PEITVTPPTP

T2: GST-tagged VIVIT PPTP
T2 chain: PVIVITPPTP

T3: GST-tagged VIVIT peptide (VIVIT 10-mer)
T3 chain: PVIVITGPHE

B1: MKK4 (activated recombinant kinase) (protein)
chain: MAAPSPSGGGGSGGGSGSGTPGPVGSPAPGHPAVSSMQGKRKALKLNFANPPFKSTARFTLNPNPTGVQNPHIERLRTHSIESSGKLKISPEQHWDFTAEDLKDLGEIGRGAYGSVNKMVHKPSGQIMAVKRIRSTVDEKEQKQLLMDLDVVMRSSDCPYIVQFYGALFREGDCWICMELMSTSFDKFYKYVYSVLDDVIPEEILGKITLATVKALNHLKENLKIIHRDIKPSNILLDRSGNIKLCDFGISGQLVDSIAKTRDAGCRPYMAPERIDPSASRQGYDVRSDVWSLGITLYELATGRFPYPKWNSVFDQLTQVVKGDPPQLSNSEEREFSPSFINFVNLCLTKDESKRPKYKELLKHPFILMYEERAVEVACYVCKILDQMPATPSSPMYVD
B2: JNK1 (activated recombinant kinase) (protein)
chain: MSRSKRDNNFYSVEIGDSTFTVLKRYQNLKPIGSGAQGIVCAAYDAILERNVAIKKLSRPFQNQTHAKRAYRELVLMKCVNHKNIIGLLNVFTPQKSLEEFQDVYIVMELMDANLCQVIQMELDHERMSYLLYQMLCGIKHLHSAGIIHRDLKPSNIVVKSDCTLKILDFGLARTAGTSFMMTPYVVTRYYRAPEVILGMGYKENVDLWSVGCIMGEMVCHKILFPGRDYIDQWNKVIEQLGTPCPEFMKKLQPTVRTYVENRPKYAGYSFEKLFPDVLFPADSEHNKLKASQARDLLSKMLVIDASKRISVDEALQHPYINVWYDPSEAEAPPPKIPDKQLDEREHTIEEWKELIYKEVMDLEERTKNGVIRGQPSPLAQVQQ

Key:
GST-tagged CABIN1-L-1-2 = molecular target: T1, GST-tagged CABIN1-L-1-2
GST-tagged VIVIT PPTP = molecular target: T2, GST-tagged VIVIT PPTP
[1] = molecular target: T3, GST-tagged VIVIT peptide (VIVIT 10-mer)

| Protein | in vitro kinase assay (32P incorporation) (GST-tagged CABIN1-L-1-2) | in vitro kinase assay (32P incorporation) (GST-tagged VIVIT PPTP) | in vitro kinase assay (32P incorporation) [1] |
| --- | --- | --- | --- |
| B1 | the MAPK family (EKR, JNK, and p38) and MKK4 directly phosphorylate CABIN1 peptide |  |  |
| B2 | ERK2, JNK1, and p38a phosphorylate purified recombinant GST-tagged peptide containing PPTP sequence (CABIN1-L-1-2 and VIVIT PPTP), but not GST-tagged VIVIT peptide | ERK2, JNK1, and p38a phosphorylate purified recombinant GST-tagged peptide containing PPTP sequence (CABIN1-L-1-2 and VIVIT PPTP), but not GST-tagged VIVIT peptide | but not GST-tagged VIVIT peptide |
